Laboratory results from patent publication US6994976.

Target: mouse TR3 (mouse) (UniProt Q925D8)
Test: flow cytometry on ConA-activated murine CD8+ T-cells, control stain

Chain of UniProt Q925D8 (Q925D8 whole entry): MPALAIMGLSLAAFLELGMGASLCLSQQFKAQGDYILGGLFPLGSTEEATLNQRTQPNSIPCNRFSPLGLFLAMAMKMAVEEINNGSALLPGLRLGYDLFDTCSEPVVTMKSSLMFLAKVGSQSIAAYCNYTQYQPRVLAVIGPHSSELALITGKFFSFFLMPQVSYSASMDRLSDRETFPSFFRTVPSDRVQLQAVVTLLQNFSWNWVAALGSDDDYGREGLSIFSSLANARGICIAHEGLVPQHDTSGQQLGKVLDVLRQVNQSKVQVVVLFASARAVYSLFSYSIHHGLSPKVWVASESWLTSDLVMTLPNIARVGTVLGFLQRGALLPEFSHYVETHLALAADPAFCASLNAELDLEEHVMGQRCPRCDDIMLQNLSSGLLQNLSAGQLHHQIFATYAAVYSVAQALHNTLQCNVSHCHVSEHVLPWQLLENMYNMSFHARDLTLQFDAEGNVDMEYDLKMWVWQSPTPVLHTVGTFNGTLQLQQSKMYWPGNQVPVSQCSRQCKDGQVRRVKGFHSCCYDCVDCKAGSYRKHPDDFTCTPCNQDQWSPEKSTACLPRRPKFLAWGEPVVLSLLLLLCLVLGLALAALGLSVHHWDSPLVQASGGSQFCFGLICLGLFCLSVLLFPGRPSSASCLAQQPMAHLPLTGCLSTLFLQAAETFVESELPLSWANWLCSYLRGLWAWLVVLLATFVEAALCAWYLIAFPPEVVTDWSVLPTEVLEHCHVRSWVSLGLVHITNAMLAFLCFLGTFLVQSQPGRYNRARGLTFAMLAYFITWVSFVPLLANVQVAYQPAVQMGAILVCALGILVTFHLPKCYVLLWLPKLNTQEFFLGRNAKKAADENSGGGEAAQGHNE

percent of cells within the marker-1 (M1, unstained) region: 99%
Substance: normal (non-immune) rat serum (antibody)
